# Experimental data taken from IntAct's records for PubMed 16951355.
# B1: ICOS ligand (Homo sapiens), O75144 (parent)
# chain: MRLGSPGLLFLLFSSLRADTQEKEVRAMVGSDVELSCACPEGSRFDLNDVYVYWQTSESKTVVTYHIPQNSSLENVDSRYRNRALMSPAGMLRGDFSLRLFNVTPQDEQKFHCLVLSQSLGFQEVLSVEVTLHVAANFSVPVVSAPHSPSQDELTFTCTSINGYPRPNVYWINKTDNSLLDQALQNDTVFLNMRGLYDVVSVLRIARTPSVNIGCCIENVLLQQNLTVGSQTGNDIGERDKITENPVSTGEKNAATWSILAVLCLLVVVAVAIGWVCRDRCLQHSYAGAWAVSPETELTGHV
# Variants of: B1
# Conditions: with icos_human ICOS
row,effect of a mutation on the interaction,Variant
1,with no effect,V143A
2,with no effect,N137Q
3,with no effect,S59A
4,disrupting interaction strength,Y53F
5,with no effect,S87A
6,with no effect,P141A
7,disrupting interaction strength,Y51A
8,decreasing interaction strength,Q55A
9,with no effect,N186Q
10,with no effect,D77A
11,with no effect,L47A
12,disrupting interaction strength,Q55A;V62A
13,with no effect,N70Q
14,with no effect,L98A
15,disrupting interaction strength,F122A
